This is an account of results in article PMC9459147, “Targeting the Cbl-b-Notch1 axis as a novel immunotherapeutic strategy to boost CD8+ T-cell responses” (Frontiers in Immunology, 2022).

For this experiment, the target named is T1, UBE2D2(C85K)-Ub-FL-BODIPY (human | , UniProt P62837 1-147; P0CG48 1-76, C85K, ubiquitinated in vitro; BODIPY labelled in vitro (position not given)).
T1 construct: UBE2D2 ubiquitin-conjugating enzyme, human, with C85K; ubiquitin, conjugated in vitro to UBE2D2(C85K); also called UBE2D2(C85K), ubiquitinated and BODIPY labelled; source: E. coli, purified, ubiquitinated and BODIPY labelled in vitro
The experiment in a line: AlphaScreen or HTRF; TR-FRET: biotinylated Cbl-b (36-427) with Src-Zap-70 fusion and ATP (enzyme reaction), UBE2D2(C85K)-Ub-FL-BODIPY and Streptavidin-Tb (binding reaction); signal at 520 nm, reference at 620 nm; used to titrate small-molecule Cbl-b inhibitors (NTX-512, NTX-447, NTX-307). To be noted: both partners purified.

B1: recombinant human Cbl-b (aa 36-427), biotinylated (domain or fragment, UniProt Q13191 36-427, looked up)
chain: PKQAAADRRTVEKTWKLMDKVVRLCQNPKLQLKNSPPYILDILPDTYQHLRLILSKYDDNQKLAQLSENEYFKIYIDSLMKKSKRAIRLFKEGKERMYEEQSQDRRNLTKLSLIFSHMLAEIKAIFPNGQFQGDNFRITKADAAEFWRKFFGDKTIVPWKVFRQCLHEVHQISSGLEAMALKSTIDLTCNDYISVFEFDIFTRLFQPWGSILRNWNFLAVTHPGYMAFLTYDEVKARLQKYSTKPGSYIFRLSCTRLGQWAIGYVTGDGNILQTIPHNKPLFQALIDGSREGFYLYPDGRSYNPDLTGLCEPTPHDHIKVTQEQYELYCEMGSTFQLCKICAENDKDVKIEPCGHLMCTSCLTAWQESDGQGCPFCRCEIKGTEPIIVDPFD
modifications: biotinylated in vitro (position not given)
notes: Cbl-b, human, residues 36-427; In the assay it was mixed with a recombinant human Src (aa 254-536)-Zap-70 (aa 281-297) fusion protein and ATP ('enzyme reaction'); Detected through Streptavidin-Tb; also called Cbl-b enzyme; source: E. coli, purified and biotinylated in vitro
For B1, the binding result is reported as “binds”.
